Reference: the RNAGym collection of RNA variant scans (doi:10.7554/elife.80360)

B1: Twister Ribozyme (parent)
chain: AACACUGCCAAUGCCGGUCCCAAGCCCGGAUAAAAGUGGAGGGGGCGG

Variants of: B1
Test: self-cleavage, relative activity (ratio to wild type); higher = more cleavage; co-transcriptional

| Variant | self-cleavage |
| --- | --- |
| AUCACUGCCAAUGCCGGUCCCAAGCCCUGAUAAAAGUGGAGGGGGCGG | 0.519 |
| AUUACUGCCAAUGCCGGUCCCAAGCCCGGAUAAAAGUGGAGGGGGCGG | 0.221 |
| AUAACUGCCAAUGCCGGUCCCAAGCCCGGAUAAAAGUGGAGGGGGCGG | 0.077 |
| AUGACUGCCAAUGCCGGUCCCAAGCCCGGAUAAAAGUGGAGGGGGCGG | 0.113 |
| AUCACUGCCAAUGCCGGUCCCAAGCCCGGAUAAAAGUGGAUGGGGCGG | 0.157 |
| AUCACUGCCAAUGCCGGUCCCAAGCCCGGAUAAAAGAGGAGGGGGCGG | 0.202 |
| AUCACUGCCAAUGCCGGACCCAAGCCCGGAUAAAAGUGGAGGGGGCGG | 0.0781 |
| AUCACUGCCAAUGCCGGGCCCAAGCCCGGAUAAAAGUGGAGGGGGCGG | 0.0917 |
| AUCACUGCCAAUGCCGGUCCCAGGCCCGGAUAAAAGUGGAGGGGGCGG | 0.0976 |
| AGCACUGCCAAUGCCGGUCCCAAGCCCGGAUAAAAGUGGAGGGGGCAG | 0.232 |
| AGCACUGCCAAUGCCGGUCCCAAGCCCGGAUAAAAGUGGAGGGGGCUG | 0.117 |
| AUCACUGCCAAUGCCGGUCCCAAGCCCGGAUAAAAGUGGAGAGGGCGG | 0.164 |
| AUCACUGCCAAUGCCGGUCCCAAGCCCGGAUAAAAGUGGAGUGGGCGG | 0.172 |
| AUCACUGCCAAUGCCGGUCCCAAGCCCGGAUAAAAGUGGAGCGGGCGG | 0.134 |
| AUCACUGCCAAGGCCGGUCCCAAGCCCGGAUAAAAGUGGAGGGGGCGG | 0.557 |
| AUCACUGCCAAAGCCGGUCCCAAGCCCGGAUAAAAGUGGAGGGGGCGG | 0.667 |
| AUCACUGCCAAUGCAGGUCCCAAGCCCGGAUAAAAGUGGAGGGGGCGG | 0.194 |
| AUCACUGCCAAUGCGGGUCCCAAGCCCGGAUAAAAGUGGAGGGGGCGG | 0.0661 |
| AUCAGUGCCAAUGCCGGUCCCAAGCCCGGAUAAAAGUGGAGGGGGCGG | 0.172 |
| AUCAUUGCCAAUGCCGGUCCCAAGCCCGGAUAAAAGUGGAGGGGGCGG | 0.448 |
| AUCAAUGCCAAUGCCGGUCCCAAGCCCGGAUAAAAGUGGAGGGGGCGG | 0.13 |
| AAAACUGCCAAUGCCGGUCCCAAGCCCGGCUAAAAGUGGAGGGGGCGG | 0.225 |
| AAAACUGCCAAUGCCGGUCCCAAGCCCGGGUAAAAGUGGAGGGGGCGG | 0.202 |
| AUCACUGCCAAUGCCGGUCCCAAGCCCGGAUAAAAGUCGAGGGGGCGG | 0.252 |
| AUCACUGCCAAUGCCGGUCCCAAGCCCGGAUAAAAGUAGAGGGGGCGG | 0.789 |
| AUCACUGCCAAUGCCGGUCCCAAGCCCGGAUAAAAGUUGAGGGGGCGG | 0.184 |
| AAAACUGCCAAUGCCGGUCCCACGCCCGGAUAAAAGUGGAGGGGGCGG | 0.0997 |

| Variant | self-cleavage |
| --- | --- |
| AUCACUGCCAAUGCCGGUCCCAAGCACGGAUAAAAGUGGAGGGGGCGG | 0.131 |
| AUCACUGCCAAUGCCGGUCCCAAGCCCGGAUAAAAGUGGAGGGGGCGA | 0.353 |
| AUCACUGCCAAUGCCGGUCCCAAGCCCGGAUAAAAGUGGAGGGGGCGC | 0.67 |
| AGCACUGCCAAUGCCGGUCCCAAGCCCGGAUAAAAGUGGAGGAGGCGG | 0.104 |
| AGCACUGCCAAUGCCGGUCCCAAGCCCGGAUAAAAGUGGAGGCGGCGG | 0.122 |
| AGCACUGCCAAUGCCGGUCCCAAGCCCGGAUAAAAGUGGAGGUGGCGG | 0.119 |
| AUCACUGCCAAUGCCGGUCCCAAGACCGGAUAAAAGUGGAGGGGGCGG | 0.0735 |
| AUCACUGCCAAUGCCGGUCCCAAGUCCGGAUAAAAGUGGAGGGGGCGG | 0.169 |
| AUCACUGCCAAUGCCGGUCCCAAGGCCGGAUAAAAGUGGAGGGGGCGG | 0.0728 |
| AUCACUGCCAAUGCCGGUCCCAAGCCCGAAUAAAAGUGGAGGGGGCGG | 0.474 |
| AUCACUGCCAAUGCCGGUCCCAAGCCCGUAUAAAAGUGGAGGGGGCGG | 0.484 |
| AAAUCUGCCAAUGCCGGUCCCAAGCCCGGAUAAAAGUGGAGGGGGCGG | 0.0689 |
| AAACCUGCCAAUGCCGGUCCCAAGCCCGGAUAAAAGUGGAGGGGGCGG | 0.0653 |
| AUCACGGCCAAUGCCGGUCCCAAGCCCGGAUAAAAGUGGAGGGGGCGG | 0.0884 |
| AUCACAGCCAAUGCCGGUCCCAAGCCCGGAUAAAAGUGGAGGGGGCGG | 0.185 |
| AUCACUGCCAAUGCCGGUCCCAACCCCGGAUAAAAGUGGAGGGGGCGG | 0.109 |
| AUCACUGCCAAUGCCGGUCCCAAACCCGGAUAAAAGUGGAGGGGGCGG | 0.112 |
| AUCGCUGCCAAUGCCGGUCCCAAGCCCGGAUAAAAGUGGAGGGGGCGG | 0.413 |
| AUCUCUGCCAAUGCCGGUCCCAAGCCCGGAUAAAAGUGGAGGGGGCGG | 0.0802 |
| AUCACUGCCAAUGCCGGUACCAAGCCCGGAUAAAAGUGGAGGGGGCGG | 0.129 |
| AUCACUGCCAAUGCCGGUUCCAAGCCCGGAUAAAAGUGGAGGGGGCGG | 0.163 |
| AGCACAGCCAAUGCCGGUCCCAAGCCCGGAUAAAAGUGGAGGGGGCGG | 0.192 |
| AUCACUGCCAAUGCCGGUCCCCAGCCCGGAUAAAAGUGGAGGGGGCGG | 0.311 |
| AUCACUGCCAAUGCCGGUCCCGAGCCCGGAUAAAAGUGGAGGGGGCGG | 0.0815 |
| AAAACUGCCAAUGCCGGUCCCGAGCCCGGAUAAAAGUGGAGGGGGCGG | 0.0923 |
| AAAACUGCCAAUGCCGGUCCCCAGCCCGGAUAAAAGUGGAGGGGGCGG | 0.115 |
| AAAACUGCCCAUGCCGGUCCCAAGCCCGGAUAAAAGUGGAGGGGGCGG | 0.308 |
